# In US7183387 (Genentech, dated 2007):
# T1: human FcγRIIA-Arg131 α subunit extracellular domain-His6-GST fusion (human, UniProt P12318 34-217)
# T1 construct: extracellular domain; also called FcγRIIA-R131; not shown: glutathione S transferase (GST)
# T1 sequence: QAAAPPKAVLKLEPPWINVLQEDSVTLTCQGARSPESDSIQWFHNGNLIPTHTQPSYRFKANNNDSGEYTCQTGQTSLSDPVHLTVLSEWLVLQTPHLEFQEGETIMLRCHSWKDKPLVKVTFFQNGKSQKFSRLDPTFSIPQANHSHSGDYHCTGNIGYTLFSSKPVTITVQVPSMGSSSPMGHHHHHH
# T2: human FcγRIIB α subunit extracellular domain-His6-GST fusion (human, UniProt P31994 43-217)
# T2 construct: extracellular domain; also called CD32; not shown: glutathione S transferase (GST)
# T2 sequence: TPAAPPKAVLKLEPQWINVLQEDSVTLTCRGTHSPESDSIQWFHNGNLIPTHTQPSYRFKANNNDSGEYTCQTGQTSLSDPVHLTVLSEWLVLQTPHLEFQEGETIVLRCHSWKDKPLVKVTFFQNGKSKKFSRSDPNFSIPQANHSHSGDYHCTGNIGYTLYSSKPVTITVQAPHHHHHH
# T3: human FcγRIIA-R131 α subunit extracellular domain-6His-GST fusion (human, UniProt P12318 34-217)
# T3 construct: also called FcγRIIA-Arg131; not shown: glutathione S-transferase (GST)
# T3 sequence: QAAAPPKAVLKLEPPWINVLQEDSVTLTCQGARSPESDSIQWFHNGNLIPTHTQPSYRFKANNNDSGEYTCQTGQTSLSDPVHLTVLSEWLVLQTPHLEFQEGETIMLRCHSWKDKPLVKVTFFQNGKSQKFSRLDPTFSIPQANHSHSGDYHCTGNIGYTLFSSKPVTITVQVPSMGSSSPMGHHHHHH
# T4: human FcγRIIB α subunit extracellular domain-6His-GST fusion (human, UniProt P31994 43-217)
# T4 construct: not shown: glutathione S-transferase (GST)
# T4 sequence: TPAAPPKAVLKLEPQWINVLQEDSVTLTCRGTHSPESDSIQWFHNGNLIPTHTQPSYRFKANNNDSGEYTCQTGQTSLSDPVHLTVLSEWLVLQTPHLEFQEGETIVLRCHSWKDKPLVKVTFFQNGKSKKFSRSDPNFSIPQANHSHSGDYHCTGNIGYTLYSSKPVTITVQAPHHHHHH
# T5: human FcγRIIA-H131 α subunit extracellular domain-His6-GST fusion protein (human, UniProt P12318 34-217)
# T5 construct: also called FcγRIIA-His131; not shown: glutathione S-transferase (GST)
# T5 sequence: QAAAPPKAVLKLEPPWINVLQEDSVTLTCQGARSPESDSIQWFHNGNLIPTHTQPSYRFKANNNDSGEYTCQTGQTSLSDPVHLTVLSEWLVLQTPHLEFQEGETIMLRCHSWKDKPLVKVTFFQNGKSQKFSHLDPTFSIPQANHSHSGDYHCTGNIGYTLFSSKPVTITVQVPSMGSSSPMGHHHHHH
# T6: human FcγRIIA-R131 α subunit extracellular domain-His6-GST fusion protein (human, UniProt P12318 34-217)
# T6 construct: ECD-6His-GST fusion made in 293 cells, coated on the plate; also called FcγRIIA-Arg131; not shown: glutathione S-transferase (GST)
# T6 sequence: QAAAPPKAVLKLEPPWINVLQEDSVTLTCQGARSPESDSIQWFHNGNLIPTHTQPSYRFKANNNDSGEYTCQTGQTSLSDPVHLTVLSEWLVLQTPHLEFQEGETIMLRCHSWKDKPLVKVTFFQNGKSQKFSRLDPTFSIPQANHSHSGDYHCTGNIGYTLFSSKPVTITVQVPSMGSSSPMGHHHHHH
# Key:
# [1] = target: T7, human FcγRIIIA-Phe158 α subunit extracellular domain-His6-GST fusion (human, UniProt P08637 17-208); assay: hexamer ELISA
# T7 construct: extracellular domain; also called FcγRIIIA-F158; CD16; not shown: glutathione S transferase (GST)
# T7 sequence (P08637 other isoform, or with tags, fused parts or gaps): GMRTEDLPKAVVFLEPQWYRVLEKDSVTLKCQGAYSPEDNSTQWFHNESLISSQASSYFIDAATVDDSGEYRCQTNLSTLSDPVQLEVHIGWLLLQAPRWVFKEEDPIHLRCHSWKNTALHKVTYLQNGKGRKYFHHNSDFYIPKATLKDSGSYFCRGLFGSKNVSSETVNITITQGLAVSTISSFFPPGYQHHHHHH
# [2] = target: T1, human FcγRIIA-Arg131 α subunit …; assay: hexamer ELISA
# [3] = target: T2, human FcγRIIB α subunit extracellular …; assay: hexamer ELISA
# [4] = target: T7, human FcγRIIIA-Phe158 α subunit …; assay: hexamer ELISA; remark: listed apart in the source
# [5] = target: T8, human neonatal Fc receptor (FcRn), biotinylated (human, UniProt P55899 24-297; P61769 21-119, biotinylated (biotin-X-NHS)); assay: FcRn ELISA, pH 6.0;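 note: Streptavidin-captured FcRn plates, IgG variants titrated 2 h at pH 6.0, peroxidase anti-human IgG read at 450 nm, variant over standard concentration at the standard curve mid-point absorbance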
# T8 construct: captured on streptavidin plates
# T8 sequence (P55899 24-297 limits assumed, chain 1 of 2): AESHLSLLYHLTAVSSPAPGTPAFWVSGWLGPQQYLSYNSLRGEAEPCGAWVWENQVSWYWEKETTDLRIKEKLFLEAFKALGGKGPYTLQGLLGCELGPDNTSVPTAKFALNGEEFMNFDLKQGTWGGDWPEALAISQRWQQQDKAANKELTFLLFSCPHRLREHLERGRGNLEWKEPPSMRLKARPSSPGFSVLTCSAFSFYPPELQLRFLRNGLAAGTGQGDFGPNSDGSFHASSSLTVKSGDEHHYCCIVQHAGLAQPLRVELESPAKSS
# T8 sequence (P61769 21-119 limits assumed, chain 2 of 2): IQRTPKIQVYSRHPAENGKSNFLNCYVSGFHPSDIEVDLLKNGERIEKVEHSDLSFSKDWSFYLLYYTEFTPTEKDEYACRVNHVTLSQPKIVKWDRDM
# [6] = target: T9, human FcγRIA α subunit extracellular domain-His6-GST fusion (human, UniProt P12314 16-292); assay: FcγRI ELISA and THP-1 cells, averaged
# T9 construct: extracellular domain; also called GST-FcγRIA; CD64; not shown: glutathione S transferase (GST)
# T9 sequence (P12314 other isoform, or with tags, fused parts or gaps): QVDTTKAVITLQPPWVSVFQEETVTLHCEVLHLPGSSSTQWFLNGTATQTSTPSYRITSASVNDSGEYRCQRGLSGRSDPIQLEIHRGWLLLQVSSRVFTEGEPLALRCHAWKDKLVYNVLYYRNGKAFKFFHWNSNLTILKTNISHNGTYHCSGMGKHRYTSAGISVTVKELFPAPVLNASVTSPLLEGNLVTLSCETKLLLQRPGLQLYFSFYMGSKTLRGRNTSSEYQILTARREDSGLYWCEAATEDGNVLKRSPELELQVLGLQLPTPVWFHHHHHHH
# [7] = target: T3, human FcγRIIA-R131 α subunit …; assay: ELISA, IgG:IgE hexamers on receptor-GST
# [8] = target: T4, human FcγRIIB α subunit extracellular …; assay: ELISA, IgG:IgE hexamers on receptor-GST
# [9] = target: T10, human FcγRIIIA-F158 α subunit extracellular domain-6His-GST fusion (human, UniProt P08637 17-208); assay: ELISA, IgG:IgE hexamers on receptor-GST
# T10 construct: also called FcγRIIIA-Phe158; not shown: glutathione S-transferase (GST)
# T10 sequence (P08637 other isoform, or with tags, fused parts or gaps, form in doubt): as the sequence (P08637 other isoform, or with tags, fused parts or gaps) above
# [10] = target: T11, human FcγRI (FcγRIA) α subunit extracellular domain-His6-GST fusion (human, UniProt P12314 16-292); assay: monomeric IgG; ELISA on receptor-GST and THP-1 cells, averaged
# T11 construct: Reported FcγRI values are the average of the plate ELISA on this fusion and of a flow cytometry assay on THP-1 cells; also called GST-FcγRIA; not shown: glutathione S-transferase (GST)
# T11 sequence (P12314 other isoform, or with tags, fused parts or gaps, form in doubt): as the sequence (P12314 other isoform, or with tags, fused parts or gaps) above
# [11] = target: T5, human FcγRIIA-H131 α subunit …; assay: ELISA, IgG:IgE hexamer on coated FcγRIIA-H131-GST
# [12] = target: T5, human FcγRIIA-H131 α subunit …; assay: ELISA; binding ratio on FcγRIIA-H131 divided by that on FcγRIIA-R131
# [13] = target: T6, human FcγRIIA-R131 α subunit …; assay: ELISA, IgG:IgE hexamer on coated FcγRIIA-R131-GST; value carried over from Table 6, 7 or 8
# [14] = target: T6, human FcγRIIA-R131 α subunit …; assay: ELISA, IgG:IgE hexamer on coated FcγRIIA-R131-GST; separate assays run together with the H131 assays
Binder,reduction in binding against native IgG1 [1],ratio to native IgG1 [2],ratio to native IgG1 [3],ratio to native IgG1 [4],ratio to native IgG1 [5],ratio to native IgG1 [6],ratio of binding of the variant to that of native IgG1 [11],H131/R131 [12],ratio of binding of the variant to that of native IgG1 [13],ratio of binding of the variant to that of native IgG1 [14],further results
anti-IgE E27 IgG1 Glu293Ala (antibody) heavy: not shown light: DIQLTQSPSSLSASVGDRVTITCRASKPVDGEGDSYLNWYQQKPGKAPKLLIYAASYLESGVPSRFSGSGSGTDFTLTISSLQPEDFATYYCQQSHEDPYTFGQGTKVEIKRTVAAPSVFIFPPSDEQLKSGTASVVCLLNNFYPREAKVQWKVDNALQSGNSQESVTEQDSKDSTYSLSSTLTLSKADYEKHKVYACEVTHQGLSSPVTKSFNRGEC,70%,1.08 ratio,1.07 ratio,0.31 ratio,0.85 ratio,1.11 ratio,,,,,
anti-IgE E27 IgG1 Tyr296Phe (antibody) heavy: not shown light: DIQLTQSPSSLSASVGDRVTITCRASKPVDGEGDSYLNWYQQKPGKAPKLLIYAASYLESGVPSRFSGSGSGTDFTLTISSLQPEDFATYYCQQSHEDPYTFGQGTKVEIKRTVAAPSVFIFPPSDEQLKSGTASVVCLLNNFYPREAKVQWKVDNALQSGNSQESVTEQDSKDSTYSLSSTLTLSKADYEKHKVYACEVTHQGLSSPVTKSFNRGEC,50%,0.97 ratio,0.86 ratio,0.55 ratio,0.79 ratio,1.03 ratio,,,,,
"E27 IgG1 variant A339(359)T (antibody, also called IG2 273) heavy: not shown light: DIQLTQSPSSLSASVGDRVTITCRASKPVDGEGDSYLNWYQQKPGKAPKLLIYAASYLESGVPSRFSGSGSGTDFTLTISSLQPEDFATYYCQQSHEDPYTFGQGTKVEIKRTVAAPSVFIFPPSDEQLKSGTASVVCLLNNFYPREAKVQWKVDNALQSGNSQESVTEQDSKDSTYSLSSTLTLSKADYEKHKVYACEVTHQGLSSPVTKSFNRGEC",,,,,,,,,,,ratio to native IgG1 [7]: 1.11; ratio to native IgG1 [8]: 1.23; ratio to native IgG1 [9]: 1.42; ratio to native IgG1 [10]: 1.23
"anti-IgE E27 IgG1 variant Ser267Ala (antibody, also called S267(280)A; S280A) heavy: not shown light: DIQLTQSPSSLSASVGDRVTITCRASKPVDGEGDSYLNWYQQKPGKAPKLLIYAASYLESGVPSRFSGSGSGTDFTLTISSLQPEDFATYYCQQSHEDPYTFGQGTKVEIKRTVAAPSVFIFPPSDEQLKSGTASVVCLLNNFYPREAKVQWKVDNALQSGNSQESVTEQDSKDSTYSLSSTLTLSKADYEKHKVYACEVTHQGLSSPVTKSFNRGEC",,,,,,,1.1 ratio (variant/native IgG1),0.71 ratio (H131 value/R131 value),1.52 ratio (variant/native IgG1),1.53 ratio (variant/native IgG1),
"anti-IgE E27 IgG1 variant Asn315Ala (antibody, also called IG2 45) heavy: not shown light: DIQLTQSPSSLSASVGDRVTITCRASKPVDGEGDSYLNWYQQKPGKAPKLLIYAASYLESGVPSRFSGSGSGTDFTLTISSLQPEDFATYYCQQSHEDPYTFGQGTKVEIKRTVAAPSVFIFPPSDEQLKSGTASVVCLLNNFYPREAKVQWKVDNALQSGNSQESVTEQDSKDSTYSLSSTLTLSKADYEKHKVYACEVTHQGLSSPVTKSFNRGEC",,,,,,,1.1 ratio (variant/native IgG1),0.99 ratio (H131 value/R131 value),1.15 ratio (variant/native IgG1),1.11 ratio (variant/native IgG1),
